This note sets out measurements from publication PMC7477632, “Aptamer-based surface-enhanced resonance Raman scattering assay on a paper fluidic platform for detection of cardiac troponin I”.

The target in data set [1] is T1, cardiac troponin I (cTnI) (UniProt P19429 2-210). As to the kind of experiment: sandwich SERRS lateral-flow assay; detector aptamer on AuNP; N1 on test line as capture; assay LOD 0.016 ng/ml; running buffer PBS with 0.25% Tween; sample pad pretreated with 0.05 M Tris pH 7.6, 0.15 M NaCl, 0.25% Triton X-100; assay temperature not stated. The conditions noted are these: protein: commercial.

The target of data set [2] is T1, cardiac troponin I (cTnI). As to the kind of experiment: sandwich SERRS lateral-flow assay; capture aptamer on test line; N2 on AuNP as detector; assay LOD 0.016 ng/ml; running buffer PBS with 0.25% Tween; sample pad pretreated with 0.05 M Tris pH 7.6, 0.15 M NaCl, 0.25% Triton X-100; assay temperature not stated. The settings on record: protein: commercial.

T1 sequence (P19429 2-210): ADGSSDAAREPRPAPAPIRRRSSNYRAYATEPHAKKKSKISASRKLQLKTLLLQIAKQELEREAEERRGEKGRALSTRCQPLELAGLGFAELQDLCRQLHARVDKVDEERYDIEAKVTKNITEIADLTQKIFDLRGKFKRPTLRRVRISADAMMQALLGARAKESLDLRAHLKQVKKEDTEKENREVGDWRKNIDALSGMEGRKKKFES

Take CGCATGCCAAACGTTGCCTCATAGTTCCCTCCCCGTGTCC (ssDNA, 5'-amine-spacer 18-spacer 18) [secondary cTnI aptamer]: the binding result in data set [1] is “binds”.

As to TTTTTTCGTGCAGTACGCCAACCTTTCTCATGCGCTGCCCCTCTTA (ssDNA, 5'-biotin) [primary cTnI aptamer], in data set [2], the binding result is listed as “binds”.
